Assay results: article PMC8184850, “Cryo-EM structure of TFIIH/Rad4–Rad23–Rad33 in damaged DNA opening in nucleotide excision repair” (Nature Communications, 2021)

T1: Rad3 (yeast, UniProt P06839 1-778)
T1 construct: Rad3 (XPD homologue), subunit of yeast coreTFIIH; Stood in the assays as part of coreTFIIH; also called yeast homologue of XPD; source: purified from yeast as a subunit of coreTFIIH
T1 sequence (looked up): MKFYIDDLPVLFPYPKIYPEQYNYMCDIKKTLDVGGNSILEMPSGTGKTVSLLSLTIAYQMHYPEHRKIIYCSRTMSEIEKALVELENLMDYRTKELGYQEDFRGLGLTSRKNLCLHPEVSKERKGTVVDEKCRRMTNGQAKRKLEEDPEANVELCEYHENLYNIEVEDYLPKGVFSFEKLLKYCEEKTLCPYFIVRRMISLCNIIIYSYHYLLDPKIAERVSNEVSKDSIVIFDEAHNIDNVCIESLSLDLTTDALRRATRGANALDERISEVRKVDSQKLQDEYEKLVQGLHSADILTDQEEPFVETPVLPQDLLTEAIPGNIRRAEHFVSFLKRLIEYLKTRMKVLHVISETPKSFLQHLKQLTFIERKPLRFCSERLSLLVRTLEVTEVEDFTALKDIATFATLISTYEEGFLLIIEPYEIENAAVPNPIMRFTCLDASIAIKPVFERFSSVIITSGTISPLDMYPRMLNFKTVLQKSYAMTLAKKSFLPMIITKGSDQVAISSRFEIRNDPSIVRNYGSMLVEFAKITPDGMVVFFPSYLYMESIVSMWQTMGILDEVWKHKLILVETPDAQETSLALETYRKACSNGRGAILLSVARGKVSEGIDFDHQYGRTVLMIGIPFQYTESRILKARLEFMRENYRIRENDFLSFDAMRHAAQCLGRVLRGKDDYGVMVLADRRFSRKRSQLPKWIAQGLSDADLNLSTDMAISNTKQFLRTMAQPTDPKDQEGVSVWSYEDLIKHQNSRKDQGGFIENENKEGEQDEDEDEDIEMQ

T2: Rad4–Rad23–Rad33 complex (yeast, UniProt P14736 1-754; P32628 1-398; Q04231 1-177)
T2 construct: Rad4 (XPC homologue), yeast; Rad23 (RAD23B homologue), yeast; Rad33 (CETN2 homologue), yeast; plasmid pETDuet-RAD33; also called Rad4–23–33; yeast homologue of XPC–RAD23B–CETN2; copies: + +
T2 sequence 1: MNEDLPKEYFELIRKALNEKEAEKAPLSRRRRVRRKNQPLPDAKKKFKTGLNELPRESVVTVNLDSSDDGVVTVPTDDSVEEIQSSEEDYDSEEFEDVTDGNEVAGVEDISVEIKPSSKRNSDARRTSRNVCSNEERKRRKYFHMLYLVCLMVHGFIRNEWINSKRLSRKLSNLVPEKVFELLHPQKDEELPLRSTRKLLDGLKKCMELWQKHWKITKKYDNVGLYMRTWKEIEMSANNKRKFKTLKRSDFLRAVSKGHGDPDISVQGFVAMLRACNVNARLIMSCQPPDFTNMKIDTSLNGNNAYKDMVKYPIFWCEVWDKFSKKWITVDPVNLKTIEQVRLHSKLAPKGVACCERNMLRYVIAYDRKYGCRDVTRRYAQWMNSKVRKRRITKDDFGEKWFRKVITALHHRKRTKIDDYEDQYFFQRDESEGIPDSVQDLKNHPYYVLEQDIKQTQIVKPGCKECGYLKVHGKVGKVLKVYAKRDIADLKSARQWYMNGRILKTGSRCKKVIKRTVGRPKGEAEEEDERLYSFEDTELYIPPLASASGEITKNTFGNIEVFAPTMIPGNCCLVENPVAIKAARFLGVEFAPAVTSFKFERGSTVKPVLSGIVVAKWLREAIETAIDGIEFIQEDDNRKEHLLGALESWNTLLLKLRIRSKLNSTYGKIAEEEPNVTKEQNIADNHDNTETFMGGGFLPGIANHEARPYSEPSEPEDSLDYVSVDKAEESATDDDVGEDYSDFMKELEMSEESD
T2 sequence 2: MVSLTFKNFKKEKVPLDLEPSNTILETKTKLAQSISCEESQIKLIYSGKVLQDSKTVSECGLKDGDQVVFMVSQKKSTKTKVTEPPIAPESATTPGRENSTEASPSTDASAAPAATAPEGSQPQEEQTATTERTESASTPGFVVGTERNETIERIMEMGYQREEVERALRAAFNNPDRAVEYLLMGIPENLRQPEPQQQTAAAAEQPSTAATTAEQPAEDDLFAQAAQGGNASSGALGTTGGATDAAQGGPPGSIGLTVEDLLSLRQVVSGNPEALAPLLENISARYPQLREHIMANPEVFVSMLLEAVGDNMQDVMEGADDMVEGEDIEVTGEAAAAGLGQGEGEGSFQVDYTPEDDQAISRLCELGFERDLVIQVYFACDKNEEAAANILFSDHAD
T2 sequence 3: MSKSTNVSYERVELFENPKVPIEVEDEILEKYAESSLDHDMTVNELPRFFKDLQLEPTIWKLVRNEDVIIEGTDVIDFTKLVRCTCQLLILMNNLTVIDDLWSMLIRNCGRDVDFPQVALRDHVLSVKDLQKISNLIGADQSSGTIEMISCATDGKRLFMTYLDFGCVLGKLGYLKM

B1: Ssl1 (natural protein, yeast, UniProt Q04673 1-461, looked up)
chain: MAPVVISESEEDEDRVAITRRTKRQVHFDGEGDDRVDQQQQQHSSSHRDRDKHVQRKKKKRLSNRNLQGSNGGYAWEDEIKRSWDLVKVDDEGDMASLVASIVEARKKRTAKKNITPYQRGIIRSLILTLDCSEAMLEKDLRPNRHAMIIQYAIDFVHEFFDQNPISQMGIIIMRNGLAQLVSQVSGNPQDHIDALKSIRKQEPKGNPSLQNALEMARGLLLPVPAHCTREVLIVFGSLSTTDPGDIHQTIDSLVSEKIRVKVLGLSAQVAICKELCKATNYGDESFYKILLDETHLKELFNEAVTPLPVNKINKGFTLVKMGFPTRIFEDTPTFCSCHSKLVYGGYFCPNCHSKVCSLPTVCPCCDLMLILSTHLARSYHHLMPLKTFAEVPTTEKFRSEDCFSCQSRFPILKNHKNGKLLTSSRYRCEDCKQEFCVDCDVFIHEILHNCPGCESKPVIT
notes: Ssl1 (p44 homologue), subunit of yeast coreTFIIH; Stood in the assays as part of coreTFIIH; also called yeast homologue of p44; source: purified from yeast as a subunit of coreTFIIH
B2: Tfb2 (natural protein, yeast, UniProt Q02939 1-513, looked up)
chain: MSDYSLKHSVTQYLEEIPQQVQNRLYTSPATCLAIYRILPPLAKFFIMAMVFNENEVPLLDLDKWVNSNGKLQFQNAIKSMKSLHLLIPNKSSGTLMINLNPTFKISLRNALTGGEVQNSFGVVVEENVVSLDLLDEYSANKWETILHFMVGTPLAKIPSEKVLNLLKHSKLMEEVNSTGEFKITNEGFQFLLQEINSQLWTLLLQYLKMIETSKMDLVDVLHFIFMLGALEVGKAYKIDALSETQRIMLQDMRDYGLVFQKHSNDSIFYPTKLALMLTSDTKTIRSASNAMDSVLRQNREEPSVNEDGANGKSTTDITTSDDLNKAGLKNQDIPDGSLIVETNFKIYSYSNSPLQIAVLSLFVHLKARFVNMVLGQITRESIRRALTNGITADQIIAYLETHAHPQMRRLAEEKLEKKLELDPNCKEPLQVLPPTVVDQIRLWQLELDRVITYEGSLYSDFETSQEYNLLSKYAQDIGVLLWKDDKKKKFFISKEGNSQVLDFAKRKLKKKQ
notes: Tfb2 (p52 homologue), subunit of yeast coreTFIIH; Tfb2C 412–513 as printed; Stood in the assays as part of coreTFIIH; also called yeast homologue of p52; source: purified from yeast as a subunit of coreTFIIH
B3: Ssl2 (natural protein, Saccharomyces cerevisiae, UniProt Q00578 1-843, looked up)
chain: MTDVEGYQPKSKGKIFPDMGESFFSSDEDSPATDAEIDENYDDNRETSEGRGERDTGAMVTGLKKPRKKTKSSRHTAADSSMNQMDAKDKALLQDTNSDIPADFVPDSVSGMFRSHDFSYLRLRPDHASRPLWISPSDGRIILESFSPLAEQAQDFLVTIAEPISRPSHIHEYKITAYSLYAAVSVGLETDDIISVLDRLSKVPVAESIINFIKGATISYGKVKLVIKHNRYFVETTQADILQMLLNDSVIGPLRIDSDHQVQPPEDVLQQQLQQTAGKPATNVNPNDVEAVFSAVIGGDNEREEEDDDIDAVHSFEIANESVEVVKKRCQEIDYPVLEEYDFRNDHRNPDLDIDLKPSTQIRPYQEKSLSKMFGNGRARSGIIVLPCGAGKTLVGITAACTIKKSVIVLCTSSVSVMQWRQQFLQWCTLQPENCAVFTSDNKEMFQTESGLVVSTYSMVANTRNRSHDSQKVMDFLTGREWGFIILDEVHVVPAAMFRRVVSTIAAHAKLGLTATLVREDDKIGDLNFLIGPKLYEANWMELSQKGHIANVQCAEVWCPMTAEFYQEYLRETARKRMLLYIMNPTKFQACQFLIQYHERRGDKIIVFSDNVYALQEYALKMGKPFIYGSTPQQERMNILQNFQYNDQINTIFLSKVGDTSIDLPEATCLIQISSHYGSRRQEAQRLGRILRAKRRNDEGFNAFFYSLVSKDTQEMYYSTKRQAFLVDQGYAFKVITHLHGMENIPNLAYASPRERRELLQEVLLKNEEAAGIEVGDDADNSVGRGSNGHKRFKSKAVRGEGSLSGLAGGEDMAYMEYSTNKNKELKEHHPLIRKMYYKNLKK
notes: Ssl2 (XPB homologue), subunit of yeast coreTFIIH; C-Ssl2 549–776, C-terminal region 771–843 as printed; Stood in the assays as part of coreTFIIH; also called yeast homologue of XPB; source: purified from yeast as a subunit of coreTFIIH

Columns and labels:
Details in all cases: both partners purified
Rad3 = molecular target: T1, Rad3; assay: cryo-EM structure; coreTFIIH and Rad4–Rad23–Rad33 on −24*/+24 AAF-DNA with ATP, glycerol gradient with glutaraldehyde; Map 1 3.86 Å (TFIIH), Map 2 9.2 Å, Map 3 7.9 Å; Rad4, Rad33 and the Tfb1 PH domain placed by rigid-body docking of known structures or homology models
Ssl2 = molecular target: B3; assay: as above
Rad4–Rad23–Rad33 complex = molecular target: T2, Rad4–Rad23–Rad33 complex; assay: cross-linking; XL-MS: TFIIH/Rad4–Rad23–Rad33 assembled on −24/+24 AAF-DNA, 1 mg/mL in 20 mM HEPES pH 7.6, 300 mM potassium acetate, 5% glycerol, 5 mM DTT; 6 mM DSBU on ice 2 h; MeroX, FDR <1%

Question: Does B1 bind (Rad3)?
Answer: binds

Question: Does B2 bind (Ssl2)?
Answer: binds

Question: Does B3 bind (Rad4–Rad23–Rad33 complex)?
Answer: binds
